IntAct's records for PubMed 29039417

B1: BBSome complex member BBS4 (Homo sapiens), Q96RK4 (parent)
chain: MAEERVATRTQFPVSTESQKPRQKKAPEFPILEKQNWLIHLHYIRKDYEACKAVIKEQLQETQGLCEYAIYVQALIFRLEGNIQESLELFQTCAVLSPQSADNLKQVARSLFLLGKHKAAIEVYNEAAKLNQKDWEISHNLGVCYIYLKQFNKAQDQLHNALNLNRHDLTYIMLGKIHLLEGDLDKAIEVYKKAVEFSPENTELLTTLGLLYLQLGIYQKAFEHLGNALTYDPTNYKAILAAGSMMQTHGDFDVALTKYRVVACAVPESPPLWNNIGMCFFGKKKYVAAISCLKRANYLAPFDWKILYNLGLVHLTMQQYASAFHFLSAAINFQPKMGELYMLLAVALTNLEDIENAKRAYAEAVHLDKCNPLVNLNYAVLLYNQGEKKNALAQYQEMEKKVSLLKDNSSLEFDSEMVEMAQKLGAALQVGEALVWTKPVKDPKSKHQTTSTSKPASFQQPLGSNQALGQAMSSAAAYRTLPSGAGGTSQFTKPPSLPLEPEPAVESSPTETSEQIREK
partner: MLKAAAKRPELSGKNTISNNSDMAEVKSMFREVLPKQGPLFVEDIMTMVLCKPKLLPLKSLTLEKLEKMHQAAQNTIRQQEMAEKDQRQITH

Variants of: B1
Conditions: with bbip1_human BBIP1, A8MTZ0

Variant	effect of a mutation on the interaction
F302E	with no effect
F302K	with no effect
D303A	with no effect
D303E	with no effect
D303K	with no effect
W304A	with no effect
W304E	with no effect
W304K	with no effect
W304R	disrupting interaction strength
K305A	with no effect
K305E	with no effect
I306A	with no effect
I306E	with no effect
I306K	with no effect
I306P	disrupting interaction strength
I306T	disrupting interaction strength
L307A	with no effect
L307E	with no effect
L307K	with no effect
L307P	disrupting interaction strength
Y308A	with no effect
Y308E	with no effect
Y308K	with no effect
N309A	with no effect

Variant	effect of a mutation on the interaction
N309D	disrupting interaction strength
N309E	with no effect
N309K	with no effect
L310A	with no effect
L310E	with no effect
L310K	with no effect
L310S	disrupting interaction strength
L310W	disrupting interaction strength
G311A	with no effect
G311D	disrupting interaction strength
G311E	with no effect
G311K	with no effect
L312A	with no effect
L312E	with no effect
L312H	disrupting interaction strength
L312K	with no effect
L312P	disrupting interaction strength
L312T	disrupting interaction strength
V313A	with no effect
V313E	with no effect
V313K	with no effect
H314A	with no effect
H314E	with no effect
H314K	with no effect

Variant	effect of a mutation on the interaction
H314P	disrupting interaction strength
L315A	with no effect
L315E	with no effect
L315K	with no effect
L315S	disrupting interaction strength
T316A	with no effect
T316E	with no effect
T316K	with no effect
M317A	with no effect
M317E	with no effect
M317K	with no effect
Q318A	with no effect
Q318E	with no effect
Q318K	with no effect
Q319A	with no effect
Q319E	with no effect
Q319K	with no effect
Y320A	with no effect
Y320C	disrupting interaction strength
Y320E	with no effect
Y320K	with no effect
A321E	with no effect
A321K	with no effect
S322A	with no effect

Variant	effect of a mutation on the interaction
S322E	with no effect
S322K	with no effect
A323E	with no effect
A323K	with no effect
A323T	disrupting interaction strength
A323V	disrupting interaction strength
F324A	with no effect
F324E	with no effect
F324K	with no effect
F324P	disrupting interaction strength
H325A	with no effect
H325E	with no effect
H325K	with no effect
F326A	with no effect
F326E	with no effect
F326K	with no effect
F326L	disrupting interaction strength
F326S	disrupting interaction strength
L327A	with no effect
L327E	with no effect
L327H	disrupting interaction strength
L327K	with no effect
L327R	disrupting interaction strength
L327T	disrupting interaction strength

Variant	effect of a mutation on the interaction
S328A	with no effect
S328E	with no effect
S328K	with no effect
A329E	with no effect
A329K	with no effect
A330E	with no effect
A330F	disrupting interaction strength
A330K	with no effect
A330V	disrupting interaction strength
I331A	with no effect
I331E	with no effect
I331F	disrupting interaction strength
I331K	with no effect
N332A	with no effect
N332E	with no effect
N332F	disrupting interaction strength
N332I	disrupting interaction strength
N332K	with no effect
N332Y	disrupting interaction strength
F333A	with no effect
F333E	with no effect
F333K	with no effect
Q334A	with no effect
Q334D	disrupting interaction strength

Variant	effect of a mutation on the interaction
Q334E	with no effect
Q334K	with no effect
P335A	with no effect
P335E	with no effect
P335K	with no effect
P335T	disrupting interaction strength
K336A	with no effect
K336E	with no effect
M337A	with no effect
M337E	with no effect
M337K	with no effect
G338A	with no effect
G338E	disrupting interaction strength
G338K	with no effect
G338R	disrupting interaction strength
E339A	with no effect
E339K	with no effect
L340A	with no effect
L340E	with no effect
L340F	disrupting interaction strength
L340K	with no effect
Y341A	disrupting interaction strength
Y341C	disrupting interaction strength
Y341D	disrupting interaction strength

Variant	effect of a mutation on the interaction
Y341E	with no effect
Y341K	with no effect
M342A	with no effect
M342E	with no effect
M342K	disrupting interaction strength
M342R	disrupting interaction strength
M342T	disrupting interaction strength
M342V	disrupting interaction strength
M342W	disrupting interaction strength
L343A	with no effect
L343E	with no effect
L343H	disrupting interaction strength
L343K	with no effect
L343P	disrupting interaction strength
L343R	disrupting interaction strength
L343T	disrupting interaction strength
L344A	with no effect
L344E	with no effect
L344K	with no effect
A345E	with no effect
